Reference: the domain aggregation screens of Martell et al. (2025)

Assay: soluble fraction after stress (log2 fold change); higher = more stays soluble; pooled small domains, quantitative proteomics
Settings: stress: 75 degC
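Further: 20 min heating vs room temperature control held 20 min.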

Sequence	soluble fraction (log2)
HMDVNLSIRSGETIGIIGSTGSAKSTLVQLIPRLYDTTEGEVLVGGVNVKNYDLEALRNSVAMVLQKN	-0.112
HMRMTTEQLMSFLKQHFPQVADNFTVRISDEGRLSVEMPVNDKHLRPGGTVSGPSMFALADVAFYLAILQ	-1.56
HMGIGSTLTDGVRVYASDDEIVVNAPAESDVRIFNAGGAQLYAGRVADVRVAVAKGLYVVTVDGRSTKITV	-1.11
HMIEEIAVPEILGMQEEEAKAKIEGLGLVFNVTDRVKSNEYEKGEVMYQSVGPDDTTVKSGYPINVTISEG	0.196
HMSLSDDIAQTLRQLGFDRDVSETLANDVLPAMPTRQDVIDLLGTLGIEKHVAADFANFVVLN	-0.964
HMSDTGQELHDALNMARRTLTILEEQAAGYTALTIPARLVLELEEKRKDVVRLETQIRSAATGTPG	-0.649
HMSAPGYRAVYPGMLESERQTAYELLSSSGFDVKINTSSGELEVTTDRYHEARMVMASQNIPK	-0.137
HMLIIDLPDFTNKKLSELQQWADANQITLKIVEKDVSSKPYDTILEQTPAKNKYEKIVKGSTMTVTVNIK	-0.965
HMGLVQQSAQKSDDAAKLMAANNLNAAQSKYQLPDEAEKDFFTFAFERGYAVEDFVDAGLVDKIMADFSA	-0.447
HMETDGGDLTPRERDVLSLIGRGLRNAEAASALGLSEHTIAGHIKSVYSKLGISTRAEAALLASRLGL	-0.499
HMPESYFEMLQKLLETYALPQEGTIYFSAADLARMPQKFEDVIEQTAQKKGGHLVVSKEPKDMDGGFVLV	-1.83
HMGKEWPTPDNVEEWKKLVKKARLWPIQADQAQSEETRERNRKKWELFVAYAKRFGYRAGIGETGKPFVNN	-1.15
HMNNWYESSIKSLVEEYFREHGFSVVFDSSEFWDVFIEKYHKQIPSSQIALFDQVAAEARSYAFNKK	-0.0798
HMIGEKLKEIREKTGMNKKEFAQYLGLKYTTYNNYETEAREPASDFLILISTKFDVSIDYLLGLQ	-1.15
HMKQNRNLPVQIINNGKIIESVMTEFNLDIDWVYSEAKRLGYKNIKDIFYAGINRDGQFFIVPLF	-3.06
HMITKENYLEKIKEIKVNEFPASMRELYDFFNEATRNGTDWSAYEEGNVKYVVDAYLERLNLLYKSN	-1.01
HMQSVSANSVQKQLADIIDGEDKTHPLSDRELTEKLVAQGVQISRRTVAKYREAMGIPGASGRKQ	-0.0543
HMESPVNTLPEDQRAWYKALPPELSTKTAVEAGAGVGVSERTVKRLLSNQTFFINLQRGNYRKRH	-0.119
HMLPAGSDAILRYLSSGAVKGIGVATAARIVEKFGDETLRILEEEPGRLAEIKGITAAKAKAIGEAFAGQ	-0.356

Sequence	soluble fraction (log2)
HMDSTSEILKVIQNIVKKEDPYHPLSDDKISNLLNDLDYQISRRTVAKYRDILTIPSSSKRRKL	-0.256
HMGLVDSLEPLLRRVYEALPQRRSMTTERLAVAAGLDEESVKVALARLQLSAFVGVDERGWHRSL	-2.98
HMEMLQRFIFLENVSSTQVESAIKELHPNLNLKRVKLSFPGADTVLLKGPKQDLELAEELIRHLDRSE	-0.652
HMEEPEFEPYVVRLTAIALNVRTGPGTQYPVAMVIRGGGAFTIVAEENGFGLLKSGAGWIMLQHTERV	-2.61
HMGEAIPVPDLKHKALTDAEHLVHELGLEIQVVDTGYVKSLPADYILGQSLAPGEKVKSGHIIYVTINSP	-1.23
HMIKRNPLDEIEGVGPGRKKALLHAFGSAKGVSRASVVDLVKVEGVSQALAERIHDFFHPATR	-0.299
HMARLAGVDLPREKRIEIGLTYIYGIGLARSQEILKKAGINPDIRVKDLTDEQEQAIRNAMDGYIVEGDL	-1
HMLDEPPVSQTLTTYDREHMALYLRLLDSARDGADWREAVQILFGLDPTRDPLRSRHVHDTHLARARWM	-0.0384
HMLTSAQLAEIRQAVRAGQASVVEDLLKNGASPNFRMENGDTGFTYAVRADTPQVAEALLKSGKL	-0.00532
HMAMDYYAIGQRIRKFRKAHDWSQEELAEKVEISTTHMSHIETGSTKLSLPVLVSLANVLDVRTDDLLF	-3.81
HMQWGKVRRLPSGRYQASYVHKGTRYTAPETYTVQGRAHGWIESERRLIVTDTWTPPDTRPS	-1.24
HMTAGTGIAYSEFRSKVQEGQVKDVAIAPDRITGTLSSGQKFSTVPVNDPGLPKMLDDFNVKYSGQA	0.139
HMDATFKVRVSVPDLNIRSGPGTNYAATGRFTGVGVFTITAVQSGQGSSSGWGKLKSGAGWIALDYAKR	-3.78
HMEFFIIDHNGQQAGPFSFDQLVQKGISPETLVWKQGMADWNPAWKVEELKAVLEAVEANQSNQKAQ	≥ 1.04
HMKVNMIIVMKPGARETDIQEVSNVLKSAGLGVHISKGTERTIIGVIGDKRLLNGIPLDLMHGVDKLVPIM	-1.24
HMSEQGVITAKFASIVGNQNIQLVMFPDSVYLKGQVSSEEEKKRAETVASSLIQDRKIVNLIEFE	-0.075
HMTESIHVGSKVTINNNAKRWATGQNIYSGVKGKTYTVIQMNGSRLLLDKVISWINKGDVHLPGS	-1.94
HMRIYTKDEYLAELSRYLHKLPQDDYESAMAYFREYFEEAGPENEAQAMRDLGTPKEAASEILQNLLH	-0.401
HMTSLAGIERFLASGAIAGVGEAMAHRLVQKFGKETLEIIEKKPSRLTEVAGVGKKTAAKIHASYMEK	-0.344
